# Values quoted from earlier work in patent publication US20230146896A1, “COMPOSITION AND METHOD FOR TREATING ALZHEIMER'S DISEASE” (Eisai R&D Management Co., Ltd., priority 2016, published 2023).
# Settings: previous studies, intravenous infusion; typically occurred on the first infusion
molecule,measurement,value
"BAN2401: humanized IgG1 monoclonal version of mAb158; heavy chain variable SEQ ID NO:1, light chain variable SEQ ID NO:2 (antibody, V domains shown) VH: EVQLVESGGGLVQPGGSLRLSCSASGFTFSSFGMHWVRQAPGKGLEWVAYISSGSSTIYYGDTVKGRFTISRDNAKNSLFLQMSSLRAEDTAVYYCAREGGYYYGRSYYTMDYWGQGTTVTVSS VL: DVVMTQSPLSLPVTPGAPASISCRSSQSIVHSNGNTYLEWYLQKPGQSPKLLIYKVSNRFSGVPDRFSGSGSGTDFTLRISRVEAEDVGIYYCFQGSHVPPTFGPGTKLEIK",adverse events (infusion reactions),infusion reactions were common AEs
